{"source": "paper doi:10.1101/2024.12.03.626679", "about": "(2024)", "key": {"[1]": {"target": "T1, Full-length human SMYD2 (residues 1-433), wild type (human, UniProt Q9NRG4 1-433)", "T1 sequence (Q9NRG4 whole entry, the tested form may be a part)": "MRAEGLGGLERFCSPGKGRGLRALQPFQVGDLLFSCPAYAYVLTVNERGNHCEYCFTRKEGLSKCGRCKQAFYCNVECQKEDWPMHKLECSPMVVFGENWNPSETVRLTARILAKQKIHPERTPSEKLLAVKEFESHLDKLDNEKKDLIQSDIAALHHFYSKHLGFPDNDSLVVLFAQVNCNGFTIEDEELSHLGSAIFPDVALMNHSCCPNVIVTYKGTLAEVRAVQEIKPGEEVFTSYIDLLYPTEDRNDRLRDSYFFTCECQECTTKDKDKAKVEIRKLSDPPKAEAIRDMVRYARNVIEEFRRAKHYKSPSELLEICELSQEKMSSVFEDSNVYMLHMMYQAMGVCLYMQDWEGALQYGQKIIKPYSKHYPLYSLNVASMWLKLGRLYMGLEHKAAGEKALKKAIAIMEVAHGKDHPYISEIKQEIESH", "experiment": "ITC; one-site model (n = 2.01)"}, "[2]": {"target": "T1, Full-length human SMYD2 (residues …)", "experiment": "ITC; two-site model, KD1"}, "[3]": {"target": "T1, Full-length human SMYD2 (residues …)", "experiment": "ITC; two-site model, KD2 (second site)"}, "SMYD2-F184A": {"target": "SMYD2-F184A (human, UniProt Q9NRG4 1-433, F184A)", "sequence (Q9NRG4 whole entry F184A)": "as the sequence (Q9NRG4 whole entry, the tested form may be a part) above, with F184A counted along it", "experiment": "ITC; one-site model"}}}
{"binder": "RMKLTLKGGAAVD", "note": "[PARP1 peptide (13-residue synthetic peptide, human PARP1 residues 522-534)]", "values": [{"measurement": "Kd", "setting": "[1]", "value": 17.7, "unit": "µM"}, {"measurement": "Kd", "setting": "[2]", "value": 17.8, "unit": "µM"}, {"measurement": "Kd", "setting": "[3]", "value": 18.2, "unit": "µM"}, {"measurement": "Kd", "setting": "SMYD2-F184A", "value": 41.7, "unit": "µM"}]}
